Test results as given in US11738082B2, “High concentration protein formulations with reduced viscosity” (Bhami's Research Laboratory, Pvt. Ltd., priority 2017, dated 2023).

Columns and labels:
[1] = tested on: Human Gamma Globulin (HGG), GLOBUCEL®; assay: Viscosity of aqueous solutions of Human Gamma Globulin (Cambridge VISCOlab5000 or DV2T cone and plate viscometer)
Protocol: Commercially obtained human gamma globulin (HGG), GLOBUCEL® (50 mg/mL) containing pharmaceutical excipients (Maltose) was dialyzed against water for 24 hr at 4° C. with three changes. To the aqueous solution of HGG, either histidine or phosphate or citrate buffer was added from the stock concentration of 1000 mM for histidine buffer or 1000 mM for citrate buffer or 1000 mM for phosphate buffer, pH 6.0 to get a final concentration of 25 mM each. The HGG solutions in various buffers were concentrated to a final volume of less than 150 μL using Vivaspin centrifugal concentrators (Sartorius). The collected protein sample was stored at 4° C. […] The protein concentrations were experimentally determined using the extinction coefficient of 1.4
[formula] at 280 nm. The viscosities of the solution were measured either using a Cambridge Viscometer, VISCOlab5000 using 70 μL of sample at 25° C. or using a DV2T cone and plate viscometer using 1.5 mL of sample at 25° C. at extrapolated zero shear rate.
Commercially obtained human gamma globulin (HGG), GLOBUCEL® (50 mg/mL) containing pharmaceutical excipients (Maltose) was dialyzed against water for 24 hr at 4° C. with three changes. To the aqueous solution of HGG, either citrate-phosphate buffer pH 5.0 or citrate-phosphate buffer pH 6.0 or citrate-phosphate buffer pH 7.0 was added from the stock concentration of 1000 mM for citrate buffer at pH 5.0 or pH 6.0 or pH 7.0 to get a final concentration of 25 mM each. The HGG solutions in various pH buffers were concentrated to a final volume of less than 150 μL using Vivaspin centrifugal concentrators (Sartorius). The collected protein sample was stored at 4° C. […] The protein concentrations were experimentally determined using the extinction coefficient of 1.4
Commercially obtained human gamma globulin (HGG), GLOBUCEL® (50 mg/mL) containing pharmaceutical excipients (Maltose) was dialyzed against water for 24 hr at 4° C. with three changes. To the aqueous solution of HGG, phosphate/citrate/histidine Buffer was added from the stock concentration of 1000 mM phosphate/citrate/histidine buffer, pH 6.0 to get a final concentration of 25 mM. To the buffered HGG different amino acid or its derivative was added individually and mixed until complete dissolution. The excipient containing HGG was concentrated to a final volume of less than 150 μL using Vivaspin centrifugal concentrators (Sartorius). The collected protein sample was stored at 4° C. […] The protein concentrations were experimentally determined using the extinction coefficient of 1.4
Commercially obtained human gamma globulin (HGG), GLOBUCEL® (50 mg/mL) containing pharmaceutical excipients (Maltose) was dialyzed against water for 24 hr at 4° C. with three changes. To the aqueous solution of HGG, phosphate/citrate/histidine Buffer was added from the stock concentration of 1000 mM phosphate/citrate/histidine buffer, pH 6.0 to get a final concentration of 25 mM. To the buffered HGG, different nucleosides or nucleotides or its derivative was added individually and mixed until complete dissolution. The excipient containing HGG was concentrated to a final volume of less than 150 μL using Vivaspin centrifugal concentrators (Sartorius). The collected protein sample was stored at 4° C.

Bevacizumab (AVASTIN®) = assay: Size Exclusion Chromatography of formulated Bevacizumab on storage; format: physicochemical; settings: storage at 25° C., formulated with tryptophan + nicotinic acid (acid form), SEC
Protocol: The collected protein sample was stored at 4° C. […] Reported protein concentrations represent the range of all protein samples in each Table or Figure. Specifically, reported values are the median plus or minus half the range. The protein concentrations were experimentally determined using the extinction coefficient of 1.54

Etanercept (ENBREL®) = target: T1, Etanercept (ENBREL®) (Homo sapiens, UniProt P20333); assay: Viscosity of Etanercept solutions (VISCOlab5000 or DV2T cone and plate viscometer); format: physicochemical; settings: for Viscosity, cP: 25 mM phosphate buffer pH 6.0, 25° C.
T1 construct: purchased ENBREL®
T1 sequence (P20333 with tags, fused parts or gaps limits assumed): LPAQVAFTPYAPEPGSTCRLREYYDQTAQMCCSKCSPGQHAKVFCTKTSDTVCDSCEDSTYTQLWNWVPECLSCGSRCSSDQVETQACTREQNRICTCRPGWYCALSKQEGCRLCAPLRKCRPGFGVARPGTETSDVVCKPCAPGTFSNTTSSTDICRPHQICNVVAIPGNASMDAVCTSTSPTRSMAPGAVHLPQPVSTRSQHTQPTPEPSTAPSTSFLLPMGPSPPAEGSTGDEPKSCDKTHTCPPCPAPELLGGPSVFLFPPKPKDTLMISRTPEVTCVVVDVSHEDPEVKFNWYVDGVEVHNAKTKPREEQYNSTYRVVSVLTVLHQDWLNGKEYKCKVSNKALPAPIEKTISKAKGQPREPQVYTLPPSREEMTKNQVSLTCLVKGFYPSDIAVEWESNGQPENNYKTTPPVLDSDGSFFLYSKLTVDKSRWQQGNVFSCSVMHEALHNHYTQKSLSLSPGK
Protocol: Commercially obtained Etanercept, ENBREL®, 25 mg as a lyophilized powder (25 mg Etanercept, 40 mg mannitol, 10 mg sucrose, and 1.2 mg Tromethamine and for reconstitution 0.9% benzyl alcohol in water) was dialyzed against 25 mM phosphate buffer, pH 6.0 for 24 hr at 4° C. with three changes. To the dialysed Etanercept different viscosity-reducing agent(s) was added individually or in combination and mixed until complete dissolution. […] The collected protein sample was stored at 4° C.
[formula] at 280 nm. […] Results
Commercially obtained Etanercept, ENBREL®, 25 mg as a lyophilized powder (25 mg Etanercept, 40 mg mannitol, 10 mg sucrose, and 1.2 mg Tromethamine and for reconstitution 0.9% benzyl alcohol in water) was dialyzed against 25 mM phosphate buffer, pH 6.0 for 24 hr at 4° C. with three changes.
To the dialysed samples of above protein agents, a combination of viscosity-reducing agents nicotinic acid (acid form) and tryptophan were added and mixed until complete dissolution. […] The collected protein samples were stored at 4° C.

Rituximab (RITUXAN®) [2] = assay: Size Exclusion Chromatography of formulated Rituximab on storage; format: physicochemical; settings: storage at 25° C., formulated with tryptophan + nicotinic acid (acid form), 250 mg/mL, SEC
Protocol: The collected protein sample was stored at 4° C. […] The protein concentrations were experimentally determined using the extinction coefficient of 1.7

Rituximab (RITUXAN®) [3] = assay: Percent reduction in aggregation of Rituximab by Size Exclusion Chromatography; format: physicochemical; settings: with nicotinic acid and tryptophan, 250-275 mg/mL, versus control at 0 time point = 100%
Protocol: To the buffered antibody solutions, different aggregation reducing-agents were added individually or in combination and mixed until complete dissolution. […] The collected protein sample was stored at 4° C. […] The amount of reduction in aggregation is calculated setting the values at 0 time point equal to 100% in control (without any aggregation-reducing agent) and the reduction in aggregation in test samples (with aggregation-reducing agent) is expressed as percent reduction when compared to control at 0 time point.

`OC[C@H]1O[C@H](O[C@H]2O[C@H](CO)[C@@H](O)[C@H](O)[C@H]2O)[C@H](O)[C@@H](O)[C@@H]1O` [Trehalose dihydrate] was tested, and the “Viscosity (cP) @ 25° C.” value ([1]; HGG 217 mg/mL, excipient 20 mg/mL (53 mM), 25 mM citrate buffer pH 6.0) was 87 cP and the “Viscosity (cP) @ 25° C.” value ([1]; HGG 246 mg/mL, excipient 20 mg/mL (53 mM), 25 mM phosphate buffer pH 6.0) was 54 cP.
In the case of `N[C@@H](Cc1c[nH]c2ccccc12)C(=O)O` [Tryptophan], the “Viscosity (cP) @ 25° C.” value ([1]; HGG 200 mg/mL, excipient 6 mg/mL (29 mM), 25 mM phosphate buffer pH 6.0) is reported as 14 cP, the “Viscosity (cP) @ 25° C.” value ([1]; HGG 231 mg/mL, excipient 6 mg/mL (29 mM), 25 mM citrate buffer pH 6.0) is reported as 60 cP and the “Viscosity (cP) @ 25° C.” value ([1]; HGG 243 mg/mL, excipient 6 mg/mL (29 mM), 25 mM phosphate buffer pH 6.0) is reported as 35 cP. The “Viscosity (cP) @ 25° C.” value ([1]; HGG 256 mg/mL, excipient 6 mg/mL (29 mM), 25 mM histidine buffer pH 6.0) was 18 cP.
With `Cl.NCCc1ccc(O)cc1` [Tyramine-HCl] the “Viscosity (cP) @ 25° C.” value ([1]; HGG 215 mg/mL, excipient 10 mg/mL (58 mM), 25 mM phosphate buffer pH 6.0) was 145 cP.
With `O=c1cc[nH]c(=O)[nH]1` [Uracil] the “Viscosity (cP) @ 25° C.” value ([1]; HGG 235 mg/mL, excipient 1 mg/mL (9 mM), 25 mM phosphate buffer pH 6.0) was 140 cP.
In the case of `O=c1ccn([C@@H]2O[C@H](CO)[C@@H](O)[C@H]2O)c(=O)[nH]1` [Uridine], the “Viscosity (cP) @ 25° C.” value ([1]; HGG 203 mg/mL, excipient 10 mg/mL (41 mM), 25 mM phosphate buffer pH 6.0) is reported as 28 cP.
In the case of “Bevacizumab: Commercially obtained Bevacizumab, AVASTIN®, dialyzed against 25 mM phosphate buffer, pH 6.0”, the “Degradation peak area (%)” value (Bevacizumab (AVASTIN®); 0 day) is reported as “Nil”, the “Standard peak area (%)” value (Bevacizumab (AVASTIN®); 0 day) is reported as 99.39% and the “Degradation peak area (%)” value (Bevacizumab (AVASTIN®); 7 days) is reported as “Nil”. For the same compound, the “Standard peak area (%)” value (Bevacizumab (AVASTIN®); 7 days) was 99.118%.
In the case of Etanercept, the “Viscosity, cP” value (Etanercept (ENBREL®); Etanercept 50 mg/mL, with 10 mg/mL nicotinic acid (acid form) + 6 mg/mL tryptophan) is reported as 2 cP, the “Viscosity, cP” value (Etanercept (ENBREL®); Etanercept 50 mg/mL, without excipient) is reported as 35 cP and the “Viscosity, cP” value (Etanercept (ENBREL®); Etanercept 100 mg/mL, with 10 mg/mL nicotinic acid (acid form) + 6 mg/mL tryptophan) is reported as 3 cP. For the same compound, the “Viscosity, cP” value (Etanercept (ENBREL®); Etanercept 100 mg/mL, without excipient) was 72 cP, the “Viscosity, cP” value (Etanercept (ENBREL®); Etanercept 150 mg/mL, with 10 mg/mL nicotinic acid (acid form) + 6 mg/mL tryptophan) was 11 cP and the “Viscosity, cP” value (Etanercept (ENBREL®); Etanercept 150 mg/mL, without excipient) was 135 cP. The “Viscosity, cP” value (Etanercept (ENBREL®); Etanercept 175 mg/mL, with 10 mg/mL nicotinic acid (acid form) + 6 mg/mL tryptophan) was 17 cP, the “Viscosity, cP” value (Etanercept (ENBREL®); Etanercept 175 mg/mL, without excipient) was 160 cP and the “Viscosity, cP” value (Etanercept (ENBREL®); Etanercept 200 mg/mL, with 10 mg/mL nicotinic acid (acid form) + 6 mg/mL tryptophan) was 23 cP. The “Viscosity, cP” value (Etanercept (ENBREL®); Etanercept 200 mg/mL, without excipient) was 230 cP, the “Viscosity, cP” value (Etanercept (ENBREL®); Etanercept 225 mg/mL, with 10 mg/mL nicotinic acid (acid form) + 6 mg/mL tryptophan) was 40 cP and the “Viscosity, cP” value (Etanercept (ENBREL®); Etanercept 225 mg/mL, without excipient) was 345 cP. For the same compound, the “Viscosity, cP” value (Etanercept (ENBREL®); Etanercept 250 mg/mL, with 10 mg/mL nicotinic acid (acid form) + 6 mg/mL tryptophan) was 65 cP, the “Viscosity, cP” value (Etanercept (ENBREL®); Etanercept 250 mg/mL, without excipient) was 439 cP and the “Viscosity, cP” value (Etanercept (ENBREL®); Etanercept 275 mg/mL, with 10 mg/mL nicotinic acid (acid form) + 6 mg/mL tryptophan) was 77 cP. For the same compound, the “Viscosity, cP” value (Etanercept (ENBREL®); Etanercept 275 mg/mL, without excipient) was 1130 cP, the “Viscosity, cP” value (Etanercept (ENBREL®); Etanercept 300 mg/mL, with 10 mg/mL nicotinic acid (acid form) + 6 mg/mL tryptophan) was 139 cP and the “magnitude of viscosity-reducing effects” value (Etanercept (ENBREL®); Etanercept 275±10 mg/mL, nicotinic acid (acid form) and tryptophan added to phosphate buffer) was 14.6 fold.
With L-Pantothenic Acid hemicalcium salt the “Viscosity (cP) @ 25° C.” value ([1]; HGG 182 mg/mL, excipient 10 mg/mL (42 mM), 25 mM phosphate buffer pH 6.0) was 14 cP.
For Polysorbate 80, the “Viscosity (cP) @ 25° C.” value ([1]; HGG 228 mg/mL, excipient 0.07%, 25 mM citrate buffer pH 6.0) was 78 cP and the “Viscosity (cP) @ 25° C.” value ([1]; HGG 241 mg/mL, excipient 0.07%, 25 mM phosphate buffer pH 6.0) was 84 cP.
For “Rituximab: Commercially obtained Rituximab, RITUXAN®, dialyzed against 25 mM phosphate buffer, pH 6.0”, the “Aggregation peak area (%)” value (Rituximab (RITUXAN®) [2]; 0 day) was 1.027%, the “Degradation peak area (%)” value (Rituximab (RITUXAN®) [2]; 0 day) was “Nil” and the “Aggregation peak area (%)” value (Rituximab (RITUXAN®) [2]; 7 days) was 0.96%. For the same compound, the “Degradation peak area (%)” value (Rituximab (RITUXAN®) [2]; 7 days) was “Nil”, the “Percent reduction in aggregation” value (Rituximab (RITUXAN®) [3]; After 24 hours) was 90% and the “Percent reduction in aggregation” value (Rituximab (RITUXAN®) [3]; After 48 hours) was 100%.
